Test results reported in publication doi:10.1101/243014, “RNA-binding proteins with mixed charge domains self-assemble and aggregate in Alzheimer’s Disease” (bioRxiv, 2018).
Values joined by “and” are separate entries in the source; they are usually repeats but may differ in a detail not shown here. Equal entries are not always repeated.

B1: N-terminal domain (residues 1–99) of rU1-70K (domain or fragment, UniProt P08621 1-99, looked up)
chain: MTQFLPPNLLALFAPRDPIPYLPPLEKLPHEKHHNQPYCGIAPYIREFEDPRDAPPPTRAETREERMERKRREKIERRQQEVETELKMWDPHNDPNAQG
notes: U1-70K residues 1-99 (N-terminus); The GST carrier was kept in BN-PAGE (~65 kDa on SDS-PAGE); also called N-terminus (1–99 residues) alone; source: HEK293, transfected, in lysate
B2: LC1 domain (residues 231–308) of rU1-70K (domain or fragment, UniProt P08621 231-308, looked up)
chain: RDRDRDRERERRERSRERDKERERRRSRSRDRRRRSRSRDKEERRRSRERSKDKDRDRKRRSSRSRERARRERERKEE
notes: The GST carrier was kept in BN-PAGE (~65 kDa on SDS-PAGE); also called LC1 alone; mixed charge LC1 domain; source: HEK293, transfected, in lysate

Target: the molecule itself
Test: native gel or EMSA; blue native PAGE (3-12% NativePAGE Bis-Tris) of 0.8 ug purified protein in loading buffer with 50 mM TCEP, 30 min at room temperature; Coomassie and western blot with Myc antibodies

Protein	stoichiometry N
B1	2
B2	2 and 3 and 4
